From the supplement of paper PMC9428881
± gives the standard error.

Assay: background-corrected fluorescence of 3'-dye-labeled ssDNA relative to brightest sequence (3'-GCGCG) (fraction); higher = brighter dye fluorescence (less quenching)
In short: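 By light-directed phosphoramidite synthesis, single-stranded DNA ending in a 3' Cy3 or Cy5 dye beside each of 1024 permuted pentamers was built on glass slides. Scanning at 532 or 635 nm took place before and after overnight ethylenediamine/ethanol deprotection. Data are means of 10 features per array over at least 3 syntheses. Fluorescence is corrected for unlabeled-oligo background and scaled to the brightest sequence.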

| Sequence | background-corrected fluorescence (dye: Cy3 (3' terminal)) | background-corrected fluorescence (dye: Cy5 (3' terminal)) |
| --- | --- | --- |
| TTTTTTGCTGCTCATGATGATTTTTTTTTTTTTTTAAGCC [CCGAA] | 0.443 ± 0.01 | 0.312 ± 0.023 |
| TTTTTTGCGCATGCGCATGATTTTTTTTTTTTTTTATATC [CTATA] | 0.438 ± 0.025 | 0.322 ± 0.017 |
| TTTTTGCAGCATCATGCGCATTTTTTTTTTTTTTTTTGAT [TAGTT] | 0.578 ± 0.013 | 0.453 ± 0.03 |
| TTTTTTCATGATGCTCAGCATTTTTTTTTTTTTTTGCAGT [TGACG] | 0.607 ± 0.021 | 0.51 ± 0.055 |
| TTTTTTGCTGATCATGCTGATTTTTTTTTTTTTTTACGAC [CAGCA] | 0.486 ± 0.025 | 0.38 ± 0.035 |
| TTTTTTCATGCGCATGCGCATTTTTTTTTTTTTTTGATAT [TATAG] | 0.532 ± 0.024 | 0.382 ± 0.018 |
| TTTTTTGATGATGAGCATGATTTTTTTTTTTTTTTCCCTC [CTCCC] | 0.346 ± 0.012 | 0.26 ± 0.019 |
| TTTTTTGCGCATGCTCAGCATTTTTTTTTTTTTTTATAGT [TGATA] | 0.587 ± 0.029 | 0.482 ± 0.041 |
| TTTTTGCATGCTGCTGCTCATTTTTTTTTTTTTTTTAAAG [GAAAT] | 0.552 ± 0.036 | 0.397 ± 0.021 |
| TTTTTTGATCATCATGATCATTTTTTTTTTTTTTTCGGCG [GCGGC] | 0.704 ± 0.027 | 0.611 ± 0.053 |
| TTTTTTGAGCAGCATCATGATTTTTTTTTTTTTTTCTTGC [CGTTC] | 0.481 ± 0.026 | 0.365 ± 0.022 |
| TTTTTTGATGATGCGCATGCTTTTTTTTTTTTTTTCCATA [ATACC] | 0.488 ± 0.015 | 0.38 ± 0.033 |
| TTTTTTGCTGCTCATCATCATTTTTTTTTTTTTTTAAGGG [GGGAA] | 0.649 ± 0.021 | 0.558 ± 0.029 |
| TTTTTTGCTCATGCTGATGATTTTTTTTTTTTTTTAGACC [CCAGA] | 0.439 ± 0.034 | 0.331 ± 0.02 |
| TTTTTGCAGCATGAGCATGCTTTTTTTTTTTTTTTTTCTA [ATCTT] | 0.467 ± 0.02 | 0.404 ± 0.036 |
| TTTTTTGAGCAGCATGCGCATTTTTTTTTTTTTTTCTTAT [TATTC] | 0.513 ± 0.029 | 0.369 ± 0.025 |
| TTTTTTGCGCATCATGCTGATTTTTTTTTTTTTTTATGAC [CAGTA] | 0.469 ± 0.0096 | 0.376 ± 0.02 |

| Sequence | background-corrected fluorescence (dye: Cy3 (3' terminal)) | background-corrected fluorescence (dye: Cy5 (3' terminal)) |
| --- | --- | --- |
| TTTTTGCATGCTGCGCATGATTTTTTTTTTTTTTTTAATC [CTAAT] | 0.458 ± 0.036 | 0.303 ± 0.015 |
| TTTTTGCAGCATCATGCTGATTTTTTTTTTTTTTTTTGAC [CAGTT] | 0.461 ± 0.024 | 0.354 ± 0.04 |
| TTTTTTCAGCAGCATGATGCTTTTTTTTTTTTTTTGTTCA [ACTTG] | 0.492 ± 0.025 | 0.389 ± 0.044 |
| TTTTTTCATGATCATGATCATTTTTTTTTTTTTTTGCGCG | 1 ± 0.024 | 1 ± 0.035 |
| TTTTTTGCTGAGCATCAGCATTTTTTTTTTTTTTTACTGT [TGTCA] | 0.63 ± 0.027 | 0.45 ± 0.06 |
| TTTTTTGCGCATGCTGCTGATTTTTTTTTTTTTTTATAAC [CAATA] | 0.434 ± 0.032 | 0.327 ± 0.023 |
| TTTTTTCATGAGCATGCTGCTTTTTTTTTTTTTTTGCTAA [AATCG] | 0.534 ± 0.014 | 0.463 ± 0.032 |
| TTTTTGCATGCTGATGCGCATTTTTTTTTTTTTTTTACAT | 0.489 ± 0.027 | 0.382 ± 0.025 |
| TTTTTTGCGCAGCATCATGATTTTTTTTTTTTTTTATTGC [CGTTA] | 0.525 ± 0.024 | 0.402 ± 0.051 |
| TTTTTTCATCATCAGCAGCATTTTTTTTTTTTTTTGGGTT | 0.598 ± 0.011 | 0.489 ± 0.031 |
| TTTTTTGCGCATGCTCATGCTTTTTTTTTTTTTTTATAGA [AGATA] | 0.602 ± 0.037 | 0.489 ± 0.045 |
| TTTTTGCAGCATCATCAGCATTTTTTTTTTTTTTTTTGGT [TGGTT] | 0.689 ± 0.017 | 0.593 ± 0.047 |
| TTTTTTGCGCATGCTGATCATTTTTTTTTTTTTTTATACG [GCATA] | 0.574 ± 0.022 | 0.43 ± 0.029 |
| TTTTTTCATCATCAGCATGCTTTTTTTTTTTTTTTGGGTA [ATGGG] | 0.614 ± 0.0069 | 0.517 ± 0.03 |
| TTTTTTGCTGAGCATGATGCTTTTTTTTTTTTTTTACTCA | 0.482 ± 0.028 | 0.346 ± 0.028 |
| TTTTTTCATCATCATGAGCATTTTTTTTTTTTTTTGGGCT [TCGGG] | 0.527 ± 0.017 | 0.442 ± 0.024 |
| TTTTTTCATGATGATGCTCATTTTTTTTTTTTTTTGCCAG [GACCG] | 0.519 ± 0.015 | 0.384 ± 0.031 |
